Where two headings read alike, the source gives them in different places.
Experiments:
U87MG xenografts = experiment: MicroPET imaging and biodistribution in U87MG xenografts
Text: (§1) Female athymic nude mice (Harlan Laboratories) were housed in an animal facility under pathogen-free conditions. Tumor model was developed in 5 to 6 weeks old female athymic nude mice by injection of 5×10^6 cells into their right shoulders. The mice underwent small-animal PET studies when the tumor volume reached 300 mm^3 (14-20 days after inoculation), and received ^90Y radionuclide therapy when the tumor volume reached 150 mm^3 (10-14 days after inoculation).
(§2) Blood, muscle, bone, liver, kidneys, spleen, intestine, heart and tumor were collected and wet-weighed. […] Radioactivity was measured in a γ-counter. The results were expressed % ID/g.

U87MG cells = test system: U87MG cells
Experimental: (§3) All the cells were supplemented with 10% fetal bovine serum, 100 IU/mL penicillin, and […] streptomycin. Cells were grown in humidified atmosphere containing 5% CO2 at 37° C.

glioblastoma [1] = settings: human, in vivo
[2] = PET/CT and dosimetry calculation in healthy volunteers
[3] = human, in vivo
[4] = mouse
Experimental: The red blood cells were separated from the plasma using centrifugation (3500 rpm for 5 min). […] The extracted soup was taken, filter on 0.45 μm filter and injected into an analytical HPLC using system 1.

HT29 cells = experiment: Cellular uptake and internalization in HT29 cells; type: cell-based, human
Experimental: as §3

glioblastoma [5] = experiment: PET in a patient with WHO stage IV glioblastoma; settings: GBM patient
HT29 xenografts = settings: mouse, in vivo
Text: as §1, §2

MDA-MB-435 xenografts = settings: mouse, in vivo
Text: as §1, §2

[6] = type: in vitro ADME, mouse
Text: At each time point, an aliquot was taken and loaded on iTLC plate and developed in for RadioTLC measurements.

U87MG tumor [7] = experiment: Histopathologic staining after targeted radiotherapy (CD31, Ki-67, TUNEL, H&E); type: in vivo, mouse
Experimental: U87MG tumor samples from Groups A-F were collected and sectioned after the animals were sacrificed. […] After being washed three times with PBS, samples were mounted with DAPI for staining of cell nuclei (Vector). Fluorescence images were acquired with an epifluorescence microscope (200×; Olympus, X81).
Immunofluorescent terminal deoxynucleotidetransferase-mediated biotin-dUTP labeling (TUNEL) analysis was done by use of a commercial available kit (Roche Applied Science). According to the manufacture's specifications, samples were fixed with 10% formalin and permeabilized by incubation with 0.1% Triton for 2 min on ice. After fixation and permeabilization, 50 μL of TUNEL reaction mixture were added on the samples. The slides were then incubated in a humidified atmosphere for 60 min at 37° C. in the dark. After rinsing with PBS and mounting with DAPI (Vector), samples were observed under an epifluorescence microscope using GFP channel.
CD31 staining to evaluate tumor vasculature, Ki-67 staining to evaluate tumor proliferation and TUNEL staining to determine the DNA damage were done for all the six groups (A-F). For groups A, E and F that had large necrotic area, staining was focused on the tumor rim where tumor cells were alive.

U87MG tumor [8] = experiment: 18F-FDG and 18F-FLT PET imaging after 90Y radiotherapy; type: in vivo, mouse
U87MG tumor [9] = experiment: 90Y radiotherapy in U87MG tumor bearing mice; type: in vivo, mouse
Text: NMEB-RGD was applied to integrin αvβ3 targeted radiotherapy. […] Similar pattern was observed after the second injection.

HT29 tumor = type: in vivo, mouse; settings: HT-29 tumor xenografts, 7.4 MBq
Experimental: In order to test the specificity of ^90Y-DMEB-RGD radiotherapy to integrin αvβ3, the efficacy of 7.4 MBq ^90Y-DMEB-RGD in HT29 that expresses lower human integrin levels but has moderate expression of mouse integrin was tested (FIG. 6). […] Injection of HT29 tumor bearing mice with 7.4 MBq ^90Y-DMEB-RGD was compared in the same model to injection of saline (FIG. 18A). […] HT-29 treated and non-treated mice were sacrificed at day 26 post injection due to tumors ulcer.

[10] = human, intravenous administration, n = 3

SMILES: Cc1cc(-c2ccc(NC(=O)CN3CCN4CCN(CC3)CC(=O)[O][64Cu][O]C(=O)C4)c(C)c2)ccc1N=Nc1ccc2c(S(=O)(=O)O)cc(S(=O)(=O)O)c(N)c2c1O [64Cu-NEB]
- tumor uptake (U87MG xenografts; U87MG xenografts, 24 h p.i., PET): approximately 8 % ID/g
- uptake in the tumor (U87MG xenografts; U87MG xenografts, up to 4 h p.i.): 6-7 % ID/g
- order of tumor uptake among xenografts (U87MG xenografts; U87MG, HT29 and MDA-MB-435 xenografts): U87MG>HT29>MDA-MB-435
- accumulation in the blood compared with the other tracers (U87MG xenografts; all time points): highest accumulation in the blood at all time points

SMILES: Cc1cc(-c2ccc(NC(=O)[C@@H](CCCCNC(=O)CCN3C(=O)CC(SCC(=O)NCCCC[C@H]4NC(=O)[C@H](Cc5ccccc5)NC(=O)[C@H](CC(=O)O)NC(=O)CNC(=O)[C@H](CCCNC(=N)N)NC4=O)C3=O)NC(=O)CN3CCN(CC(=O)O)CCN(CC(=O)O)CC3)c(C)c2)ccc1/N=N/c1ccc2c(S(=O)(=O)O)cc(S(=O)(=O)O)c(N)c2c1O (some centres unmarked) [64Cu-NMEB-RGD, metal not drawn]
- cell uptake (U87MG cells; U87MG cells, 4 h): 1.86±0.22 % of total input
- cell uptake, effect of albumin in the medium (U87MG cells; all time points): significantly higher in the absence of albumin in the medium
- internalization (U87MG cells; time points later than 5 min): most of ^64Cu-NMEB-RGD uptake was internalized
- T(max/N), tumor/non-tumor ratio (glioblastoma [1]): 73.4
- effective dose ([2]; healthy volunteers): 0.1166 Rem/mCi
- Effective Dose Equivalent, Mean [2, 10]: 0.0454 mSv/MBq
- Effective Dose, Mean [2, 10]: 0.0315 mSv/MBq
- Estimated absorbed dose, Kidneys, Mean [2, 10]: 0.0994 mSv/MBq
- exposure ([2]; subject injected with 8 mCi): 0.933 Rem
- accumulation in normal organs [3]: no undesired accumulation in normal organs
- Estimated absorbed dose, Adrenals, Mean ([3]; iv): 0.0319 mSv/MBq
- Estimated absorbed dose, Brain, Mean ([3]; iv): 0.0077 mSv/MBq
- Estimated absorbed dose, Breasts, Mean ([3]; iv): 0.0241 mSv/MBq
- Estimated absorbed dose, Gallbladder Wall, Mean ([3]; iv): 0.0346 mSv/MBq
- Estimated absorbed dose, Heart Wall, Mean ([3]; iv): 0.0298 mSv/MBq
- Estimated absorbed dose, Liver, Mean ([3]; iv): 0.1012 mSv/MBq
- Estimated absorbed dose, Lower Large Intestine Wall, Mean ([3]; iv): 0.0291 mSv/MBq
- Estimated absorbed dose, Lungs, Mean ([3]; iv): 0.0200 mSv/MBq
- Estimated absorbed dose, Muscle, Mean ([3]; iv): 0.0127 mSv/MBq
- Estimated absorbed dose, Osteogenic Cells, Mean ([3]; iv): 0.0528 mSv/MBq
- Estimated absorbed dose, Ovaries, Mean ([3]; iv): 0.0294 mSv/MBq
- Estimated absorbed dose, Pancreas, Mean ([3]; iv): 0.0647 mSv/MBq
- Estimated absorbed dose, Red Marrow, Mean ([3]; iv): 0.0230 mSv/MBq
- Estimated absorbed dose, Skin, Mean ([3]; iv): 0.0219 mSv/MBq
- Estimated absorbed dose, Small Intestine, Mean ([3]; iv): 0.0545 mSv/MBq
- Estimated absorbed dose, Spleen, Mean ([3]; iv): 0.1293 mSv/MBq
- Estimated absorbed dose, Stomach Wall, Mean ([3]; iv): 0.0301 mSv/MBq
- Estimated absorbed dose, Testes, Mean ([3]; iv): 0.0229 mSv/MBq
- Estimated absorbed dose, Thymus, Mean ([3]; iv): 0.0261 mSv/MBq
- Estimated absorbed dose, Thyroid, Mean ([3]; iv): 0.0248 mSv/MBq
- Estimated absorbed dose, Total Body, Mean ([3]; iv): 0.0299 mSv/MBq
- Estimated absorbed dose, Upper Large Intestine Wall, Mean ([3]; iv): 0.0317 mSv/MBq
- Estimated absorbed dose, Urinary Bladder Wall, Mean ([3]; iv): 0.0268 mSv/MBq
- Estimated absorbed dose, Uterus, Mean ([3]; iv): 0.0334 mSv/MBq
- stability in the blood in vivo [4]: stable up to 4 h in the blood
- radioactivity extraction bound to the blood proteins fraction ([4]; in vivo): Over 90%
- tumor accumulation, % ID/g max (U87MG xenografts; U87MG xenografts, 4 and 24 h p.i.): 27-30 % ID/g
- tumor uptake (max) higher than uptake of 64Cu-NOTA-c(RGDfk) (U87MG xenografts; mouse, in vivo): 15 times
- tumor uptake blocked by (U87MG xenografts; mouse, in vivo): 55-65%
- cell uptake (HT29 cells): 0.76±0.03%
- T(max/N), tumor/non-tumor ratio (glioblastoma [5]; 0.5 h): 8.36
- T(mean/N), tumor/non-tumor ratio (glioblastoma [5]; 0.5 h): 4.13
- Tumor-SUVmax (glioblastoma [5]; 0.5 h): 1.84
- Tumor-SUVmean (glioblastoma [5]; 0.5 h): 0.91
- T(max/N), tumor/non-tumor ratio (glioblastoma [5]; 1 h): 9.78
- T(mean/N), tumor/non-tumor ratio (glioblastoma [5]; 1 h): 4.96
- Tumor-SUVmax (glioblastoma [5]; 1 h): 2.74
- Tumor-SUVmean (glioblastoma [5]; 1 h): 1.39
- T(max/N), tumor/non-tumor ratio (glioblastoma [5]; 8 h): 25.35
- T(mean/N), tumor/non-tumor ratio (glioblastoma [5]; 8 h): 13.05
- Tumor-SUVmax (glioblastoma [5]; 8 h): 5.07
- Tumor-SUVmean (glioblastoma [5]; 8 h): 2.61
- T(max/N), tumor/non-tumor ratio (glioblastoma [5]; 12 h): 32.89
- T(mean/N), tumor/non-tumor ratio (glioblastoma [5]; 12 h): 17.21
- Tumor-SUVmax (glioblastoma [5]; 12 h): 6.25
- Tumor-SUVmean (glioblastoma [5]; 12 h): 3.27
- T(max/N), tumor/non-tumor ratio (glioblastoma [5]; 20 h): 63.33
- T(mean/N), tumor/non-tumor ratio (glioblastoma [5]; 20 h): 34.5
- Tumor-SUVmax (glioblastoma [5]; 20 h): 3.8
- Tumor-SUVmean (glioblastoma [5]; 20 h): 2.07
- T(max/N), tumor/non-tumor ratio (glioblastoma [5]; 20.5 h): 66.16
- T(mean/N), tumor/non-tumor ratio (glioblastoma [5]; 20.5 h): 34.5
- Tumor-SUVmax (glioblastoma [5]; 20.5 h): 3.97
- Tumor-SUVmean (glioblastoma [5]; 20.5 h): 2.07
- T(mean/N), tumor/non-tumor ratio (glioblastoma [5]; 24 h): 40.2
- Tumor-SUVmax (glioblastoma [5]; 24 h): 3.67
- Tumor-SUVmean (glioblastoma [5]; 24 h): 2.01
- tumor uptake compared with U87MG (HT29 xenografts): significantly lower than U87MG at all time points
- tumor uptake compared with U87MG (MDA-MB-435 xenografts): significantly lower than U87MG at all time points
- stability in mouse serum (de-metalation) [6]: stable in mouse serum for up to 24 h

SMILES: Cc1cc(-c2ccc(NC(=O)[C@@H](CCCCNC(=O)CCN3C(=O)CC(SCC(=O)NCCCC[C@H]4NC(=O)[C@H](Cc5ccccc5)NC(=O)[C@H](CC(=O)O)NC(=O)CNC(=O)[C@H](CCCNC(=N)N)NC4=O)C3=O)NC(=O)CN3CCN(CC(=O)O)CCN(CC(=O)O)CCN(CC(=O)O)CC3)c(C)c2)ccc1/N=N/c1ccc2c(S(=O)(=O)O)cc(S(=O)(=O)O)c(N)c2c1O (some centres unmarked) [90Y-DMEB-RGD, metal not drawn]
- cell apoptosis (TUNEL staining) (U87MG tumor [7]; group B 7.4 MBq): considerably more cell apoptosis
- cell proliferation (Ki-67 staining) (U87MG tumor [7]; group B 7.4 MBq): significantly reduced cell proliferation
- tumor vasculature (CD31 staining) (U87MG tumor [7]; group B 7.4 MBq): lesser than that in the other groups
- Hematoxylin and eosin staining, tumor necrosis (U87MG tumor [7]; group B, two doses of 7.4 MBq): most of the tumor area in Group B was already necrotic
- 18F-FLT PET, tumor proliferation (U87MG tumor [8]; 5 and 12 days post initial treatment, group B 7.4 MBq): significant less 18F-FLT uptake
- 18F-FDG PET, tumor metabolism (U87MG tumor [8]; 3 days post-injection): decreased metabolism
- 18F-FDG PET, tumor metabolism (U87MG tumor [8]; 10 days post-treatment, group B 7.4 MBq): significant decreased metabolism
- tumor volume (U87MG tumor [9]; 1.75 MBq, second injection): No effect on the tumor volume
- tumor volume (U87MG tumor [9]; 3.7 MBq, second injection): Minor tumor shrink
- survival compared with saline and 90Y-DOTA-c(RGDfK) groups (U87MG tumor [9]; 7.4, 3.7 and 1.75 MBq groups): significant differences (p<0.01)
- tumor volume compared with saline group (U87MG tumor [9]; 7.4, 3.7 and 1.75 MBq groups, day 6 post treatment): significantly lower (p<0.01)
- body weight loss (U87MG tumor [9]; 7.4 MBq, day 2, regained at day 4): 5%
- tumor volume (U87MG tumor [9]; 7.4 MBq, first injection): reduction of volume by day 8
- tumor volume (U87MG tumor [9]; 7.4 MBq, second injection 14 days post initial treatment): tumors almost disappeared up to 30 days post initial treatment
- tumor growth (HT29 tumor): delay of tumor growth

Reference: US10696631B2 (priority 2016, dated 2020)
